From patent US20260258137A1

Legend:
[1] = target: human PD-L1 on CHO-K1 cells (CHO-K1/hPD-L1, Nanjing Genscript, M00543) (human) (UniProt Q9NZQ7); assay: flow cytometry on CHO-K1/hPD-L1 cells
[2] = target: cynomolgus PD-L1 on CHO-K1 cells (CHO-K1/cynoPD-L1, Nanjing Genscript, M00573) (cynomolgus) (UniProt G7PSE7); assay: flow cytometry on CHO-K1/cynoPD-L1 cells
[3] = target: human PD-L1 on CHO-K1 cells (CHO-K1/hPD-L1, Nanjing Genscript, M00543) (human) (UniProt Q9NZQ7); assay: flow cytometry competition: biotin-hPD-1 binding to CHO-K1/hPD-L1 cells

Sequence of human PD-L1 on CHO-K1 cells (CHO-K1/hPD-L1, Nanjing Genscript, M00543) (human) (Q9NZQ7 19-290, one chain of several): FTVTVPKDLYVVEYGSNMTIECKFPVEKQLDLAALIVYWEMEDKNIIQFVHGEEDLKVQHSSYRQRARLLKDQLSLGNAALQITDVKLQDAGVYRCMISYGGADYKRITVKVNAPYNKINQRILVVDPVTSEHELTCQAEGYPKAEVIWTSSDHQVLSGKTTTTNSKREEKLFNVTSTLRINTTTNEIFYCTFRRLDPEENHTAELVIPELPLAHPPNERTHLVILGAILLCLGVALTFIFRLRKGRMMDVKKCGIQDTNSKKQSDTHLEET
Sequence of cynomolgus PD-L1 on CHO-K1 cells (CHO-K1/cynoPD-L1, Nanjing Genscript, M00573) (cynomolgus) (G7PSE7 entry or part of it limits assumed, one chain of several): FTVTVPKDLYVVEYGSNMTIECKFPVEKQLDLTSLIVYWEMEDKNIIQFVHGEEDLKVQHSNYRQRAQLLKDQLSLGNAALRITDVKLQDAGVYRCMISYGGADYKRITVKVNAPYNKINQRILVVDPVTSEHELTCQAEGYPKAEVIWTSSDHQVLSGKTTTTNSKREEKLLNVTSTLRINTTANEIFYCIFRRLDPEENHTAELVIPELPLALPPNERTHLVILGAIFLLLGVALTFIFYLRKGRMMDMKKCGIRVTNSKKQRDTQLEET

For isotype antibody hIgG1 iso, the MFI maximum value [1] was 305 MFI, the MFI maximum value [2] was 935 MFI and the Maximum inhibition rate (%) [3] was 0.68%.
